US20090123940A1, “MOLECULES INVOLVED IN SYNAPTOGENESIS AND USES THEREFOR” (THE JOHNS HOPKINS UNIVERSITY, priority 2007, published 2009)
Marks after values point to notes of the source that are not given here.

Assays:
cultured spinal neurons = assay: Narp overexpression in transfected cultured spinal neurons; assay type: cell-based
Protocol: In order to characterize the synaptic targeting of Narp in neurons, a C-terminal myc-tagged version of Narp (designated myc-Narp) was transfected into cultured spinal neurons (Dong et al., Nature 386:279-84, 1997). After 72 hours of expression, live staining with an anti-myc (mouse) antibody, followed by a FITC labeled anti-mouse secondary, was used to reveal the surface distribution of the transfected Narp. Subsequent staining of the same cells, after fixation and permeabilization, with an AMCA labeled anti-myc (rabbit) antibody was used to identify transfected neurons and their axons and dendrites, while GluR1 and GAD staining were used to identify excitatory and inhibitory synapses, respectively.
Given the presence of Narp on both pre and postsynaptic processes and the biochemical propensity of pentraxins to form head to head multimeric aggregates (Emsley et al., Nature 367, 338-45, 1994; Gewurz et al., Curr. Opin. Immunol. 7:54-64, 1995; Bottazzi et al., J. Biol. Chem. 272:32817-23, 1997), the possibility that Narp may function to facilitate the formation of excitatory synapses was explored. Thus, the number of synaptic GluR1 clusters (i.e., GluR1 clusters associated with synaptophysin staining) in transfected neurons over expressing myc-Narp was compared with the number of synaptic GluR1 clusters in untransfected neurons or in neurons transfected with a control plasmid containing the C-terminus of the NMDA receptor subunit NR1A (NR1CT).

[1] = tested on: GluR1 expressing 293 cells; assay: Co-culture of separately transfected 293 cells, intercellular clustering; assay type: cell-based
Description: To evaluate whether Narp could mediate intercellular aggregation of GluR1, similar to that expected at a synapse, myc-tagged Narp and GluR1 were expressed separately in 293 cells and subsequently co-cultured together. Under these conditions, surface Narp clusters on one cell could induce large surface GluR1 aggregates on another. In a total of 109 contacts between a GluR1 expressing transfected cell and a Narp expressing cell, there was a mean of 1.2+/−0.75 large overlapping GluR1/myc-Narp clusters at these sites of contact. […] Moreover, the number of GluR1 clusters at sites of contact with non-Narp expressing 293 cells was extremely low [0.07 R1 clusters per contact with a GluR2 expressing cell (n=76); 0.03 R1 clusters per contact with a Pick1/GluR2 expressing cell (n=58)]. The interaction between GluR1 and Narp required contact between the heterologous cells, as there was no evidence that Narp could diffuse from one cell and induce GluR1 clusters on another.

[2] = tested on: GluR1 on cultured spinal neurons; assay: Co-culture of myc-Narp expressing 293 cells with spinal neurons; assay type: cell-based
Protocol: The neurons and transfected HEK-293 cells were cocultured for 48 hours and then fixed and stained for myc-Narp, GluR1 and synapsin. When contacts between myc-Narp expressing 293 cells and GluR1 expressing spinal neurons were examined for overlapping myc-Narp/GluR1 clusters, 64% (82/128) of the myc-Narp clusters in contact with the neuron overlapped with neuronal GluR1 clusters (mean of 2.6+/−1.5 overlapping myc-Narp/GluR1 clusters per 293-neuron contact).

[3] = molecular target: T1, HA GluR1 surface diffusion (Homo sapiens, UniProt P42261); assay: Single Quantum Dot Tracking of HA-tagged receptors on hippocampal neurons; assay type: cell-based, mouse
T1 construct: expressed in transfected cells; host or cells: dissociated mouse hippocampal neurons (P1-3 pups)
T1 sequence (P42261 19-906): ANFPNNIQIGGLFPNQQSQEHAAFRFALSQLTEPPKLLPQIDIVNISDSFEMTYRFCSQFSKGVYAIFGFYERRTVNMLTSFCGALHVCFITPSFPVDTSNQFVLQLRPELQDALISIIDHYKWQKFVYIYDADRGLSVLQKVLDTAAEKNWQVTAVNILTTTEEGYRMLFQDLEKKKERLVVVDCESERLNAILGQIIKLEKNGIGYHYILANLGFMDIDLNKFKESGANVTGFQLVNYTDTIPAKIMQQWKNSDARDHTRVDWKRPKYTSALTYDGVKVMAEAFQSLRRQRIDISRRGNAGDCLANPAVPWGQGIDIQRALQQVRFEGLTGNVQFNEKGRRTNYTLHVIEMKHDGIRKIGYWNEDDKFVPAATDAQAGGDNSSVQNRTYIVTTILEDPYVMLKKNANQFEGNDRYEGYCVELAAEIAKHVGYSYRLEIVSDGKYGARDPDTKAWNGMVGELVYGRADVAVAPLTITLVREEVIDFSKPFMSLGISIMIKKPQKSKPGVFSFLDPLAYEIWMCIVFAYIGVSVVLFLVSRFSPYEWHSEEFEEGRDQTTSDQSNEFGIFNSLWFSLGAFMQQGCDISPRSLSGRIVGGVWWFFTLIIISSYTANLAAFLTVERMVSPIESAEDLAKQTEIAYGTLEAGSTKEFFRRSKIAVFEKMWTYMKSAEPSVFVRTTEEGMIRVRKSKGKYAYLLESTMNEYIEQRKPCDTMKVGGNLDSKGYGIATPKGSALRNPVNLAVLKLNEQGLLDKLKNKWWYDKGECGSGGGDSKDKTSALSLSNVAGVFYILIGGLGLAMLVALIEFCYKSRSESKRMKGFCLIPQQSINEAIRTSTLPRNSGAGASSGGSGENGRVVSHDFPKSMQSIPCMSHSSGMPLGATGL
Protocol: (§1) Single Quantum Dot (QD) Tracking. Hippocampal neurons were prepared from postnatal days 1-3 mouse pups and cultured in Banker Style conditions to 6 D. I. V., 8 D. I. V., or 11 D. I. V. Cultured hippocampal neurons were transfected as above. 0.5 μL of QD 655 mouse IgG (QuantumDot Corporation) was incubated with 0.8 μg of HA antibody (Santa Cruz) in a 20 μL volume of PBS for 1 hour at room temperature. Neurons were incubated in a 1:500 dilution of this QD solution for 15 minutes at 37° C., 5% CO2. After brief washes with culture media, the neurons were mounted on a live imaging chamber with culture media/10 mM Hepes. Transfected neurons were identified based on GFP fluorescence. 100 millisecond exposure images were collected from neurons at a frequency of 2.67 Hz for 60 seconds with a coolsnap HQ (Photometrix). The graphical and numerical representation of the trajectory of each QD was extracted from each stack of images using the Motion Analysis Package of Metamorph (Universal Imaging Corporation). The numerical representation of the trajectory was used to calculate a diffusion coefficient using MSD software. Analysis was performed blinded.
(§2) Narp reduces surface diffusion of GluR1 but not GluR1ΔNAR1. GluR1ΔNAR1 was used to examine the hypothesis that Narp and NP1 function to limit the diffusion of receptors, and thereby recruit GluR1 to synapses. As part of a validation of GluR1ΔNAR1 for cell biological studies it was confirmed that it retained agonist-dependent channel activity. […] The mobility of HA GluR1 relative to HA GluR1ΔNAR1 on the surface of neuronal dendrites were compared using 5 nm fluorescent Quantum Dots (QDs) and Single Quantum Dot Tracking (SQDT). Dissociated hippocampal cultures (DIV 6) were transfected with HA GluR1-IRES2-GFP or HA-GluR1ΔNAR1-IRES2-GFP. […] QD-HA-GluR1 and QD-HA-GluR1ΔNAR1 were visualized by live, time-lapse fluorescence imaging. The trajectories of QD-coupled receptors were determined by the position of the QD in each frame, and the receptor diffusion coefficients were calculated from QD trajectories over multiple trials. […]

[4] = molecular target: T2, HA GluR1 surface diffusion (Homo sapiens, UniProt P42261, A320G/C323G/D322G/DEL281-317/N319G); assay: as above; assay type: cell-based, mouse; conditions: 7 D. I. V., Narp transgene
T2 construct: expressed in transfected cells; host or cells: dissociated mouse hippocampal neurons (P1-3 pups)
T2 sequence (P42261 with tags, fused parts or gaps DEL281-317/N319G/A320G/D322G/C323G): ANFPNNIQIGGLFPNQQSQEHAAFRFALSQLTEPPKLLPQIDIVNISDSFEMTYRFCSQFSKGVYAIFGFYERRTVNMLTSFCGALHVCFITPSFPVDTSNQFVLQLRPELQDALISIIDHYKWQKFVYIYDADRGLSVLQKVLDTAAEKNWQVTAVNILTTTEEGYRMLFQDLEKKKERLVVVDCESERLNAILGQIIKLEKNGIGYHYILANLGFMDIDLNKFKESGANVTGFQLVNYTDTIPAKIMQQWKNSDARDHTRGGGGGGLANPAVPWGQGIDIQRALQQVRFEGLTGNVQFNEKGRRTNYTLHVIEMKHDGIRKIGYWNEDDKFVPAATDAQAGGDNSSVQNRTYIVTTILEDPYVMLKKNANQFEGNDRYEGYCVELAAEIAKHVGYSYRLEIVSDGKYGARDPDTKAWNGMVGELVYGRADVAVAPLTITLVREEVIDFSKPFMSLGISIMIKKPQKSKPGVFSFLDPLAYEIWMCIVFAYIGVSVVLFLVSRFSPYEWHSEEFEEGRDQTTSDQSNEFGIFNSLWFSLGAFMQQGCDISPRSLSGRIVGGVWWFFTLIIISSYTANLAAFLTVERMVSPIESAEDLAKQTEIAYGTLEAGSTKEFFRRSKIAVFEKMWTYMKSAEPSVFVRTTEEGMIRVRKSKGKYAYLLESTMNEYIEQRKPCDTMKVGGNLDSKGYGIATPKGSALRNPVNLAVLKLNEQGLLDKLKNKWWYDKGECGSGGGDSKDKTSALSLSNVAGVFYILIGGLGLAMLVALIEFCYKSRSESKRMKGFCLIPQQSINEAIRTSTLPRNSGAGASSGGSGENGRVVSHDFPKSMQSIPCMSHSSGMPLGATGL
Protocol: as §1, §2

[5] = transfected neurons, +/- S.D., 5 experiments

B1: Narp: Neuronal activity regulated pentraxin (SEQ ID NO:2), expressed by transfection, also as C-terminal myc-tagged version (protein, listed as Rattus norvegicus)
chain: MLALLTAGVALAVAAGQAQDNPIPGSRFVCTALPPEAARAGCPLPAMPMQGGALSPEEELRAAVLHWRETVVQQKETLGAQREAIRELTSKLARCEGLAGGKARGTGATGKDTMGDLPRDPGHVVEQLSRSLQTLKDRLESLELQLHTNASNAGLPSDFREVLQRRLGELERQLLRKVAELEDEKSLLHNETSAHRQKTENTLNALLQRVTELERGNSAFKSPDAFKVSLPLRTNYLYGKIKKTLPELYAFTICLWLRSSASPGIGTPFSYAVPGQANEIVLIEWGNNPIELLINDKVAQLPLFVSDGKWHHICITWTTRDGMWEAFQDGEKLGTGENLAPWHPIKPGGVLILGQEQDTVGGRFDATQAFVGELSQFNIWDRVLRAQEIINIANCSTNMPGNIIPWVDNNVDVFGGASKWPVETCEERLLDL
modifications: optional C-terminal myc tag
Q: How did the “increase in number of synaptic GluR1 clusters compared to either control” value (cultured spinal neurons; five transfection experiments, p<0.01) turn out when B1 was run?
A: 1.9 fold

Q: What about the “Synaptic GluR1 Clusters” value (cultured spinal neurons; [5]) of the same molecule?
A: 13.0 +/− 3.8 **

Q: And the “Synaptophysin Clusters” value (cultured spinal neurons; [5])?
A: 16.0 +/− 4.6 *

Q: What about the Neuritic Length (cultured spinal neurons; transfected neurons, permeablized myc staining at 100X, 3 experiments) of the same molecule?
A: 225 µm

Q: What about the “GAD Clusters” value (cultured spinal neurons; transfected neurons, separate series of 3 experiments) of the same molecule?
A: 5.9 +/− 3.9

Q: And the “large overlapping GluR1/myc-Narp clusters at sites of contact” value ([1]; 109 contacts between a GluR1 expressing cell and a Narp expressing cell)?
A: 1.2+/−0.75

Q: And the “coclusters of NR1 and NR2A” value ([1]; n=32 contacts)?
A: 0

Q: And the “clusters of EAAC1 at sites of contact” value ([1]; n=121)?
A: 0.04+/−0.05

Q: What about the “intercellular myc-Narp*GluR1 co-clusters” value ([1]; untagged Narp co-expressed with GluR1, co-cultured with cells expressing only myc-tagged Narp, n=124) of the same molecule?
A: 2.6+/−1.4

Q: And the “myc-Narp clusters in contact with the neuron overlapping with neuronal GluR1 clusters” value ([2]; 48 hours coculture)?
A: 64%

Q: And the “overlapping myc-Narp/GluR1 clusters per 293-neuron contact” value ([2]; 48 hours coculture)?
A: 2.6+/−1.5

Q: And the “bioactivity of soluble Narp collected from the media (binding to transfected 293 cells)” value ([2]; soluble secreted form)?
A: no bioactivity

Q: And the “slowing of HA GluR1 average diffusion rate versus absence of Narp transgene” value ([3]; 7 D. I. V.)?
A: 58%

Q: What about the “slowing of HA GluR1 diffusion in the presence of the Narp transgene” value ([3]; 9 D. I. V.) of the same molecule?
A: 44%

Q: And the “HA-GluR1ΔNAR1 average diffusion rate” value [4]?
A: not significantly altered
